From patent publication US20120244144A1 (University of Texas, published 2012)

Key:
[1] = biological target: T1, PTx-S1-220 T156A (Bordetella pertussis strain Tohama I, UniProt P04977 36-255, T156A); assay: SPR, mAb 1B7 immobilised ~1000 RU
T1 sequence: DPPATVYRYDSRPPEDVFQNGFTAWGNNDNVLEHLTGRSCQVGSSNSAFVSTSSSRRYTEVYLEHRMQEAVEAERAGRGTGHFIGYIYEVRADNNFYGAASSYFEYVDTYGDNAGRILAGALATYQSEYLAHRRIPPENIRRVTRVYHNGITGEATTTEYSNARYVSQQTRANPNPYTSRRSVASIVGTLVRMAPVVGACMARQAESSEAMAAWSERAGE

[2] = biological target: T2, PTx-S1-220 Y161A (Bordetella pertussis strain Tohama I, UniProt P04977 36-255, Y161A); assay: SPR, mAb 1B7 immobilised ~1000 RU
T2 sequence: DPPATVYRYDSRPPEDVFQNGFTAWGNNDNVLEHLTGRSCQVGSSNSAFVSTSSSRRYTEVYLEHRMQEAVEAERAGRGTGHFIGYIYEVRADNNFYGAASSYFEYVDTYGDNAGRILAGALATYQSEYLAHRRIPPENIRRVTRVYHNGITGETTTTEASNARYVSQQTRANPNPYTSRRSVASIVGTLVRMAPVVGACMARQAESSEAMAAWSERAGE

[3] = biological target: T3, PTx-S1-220 T153A (Bordetella pertussis strain Tohama I, UniProt P04977 36-255, T153A); assay: SPR, mAb 1B7 immobilised ~1000 RU
T3 sequence: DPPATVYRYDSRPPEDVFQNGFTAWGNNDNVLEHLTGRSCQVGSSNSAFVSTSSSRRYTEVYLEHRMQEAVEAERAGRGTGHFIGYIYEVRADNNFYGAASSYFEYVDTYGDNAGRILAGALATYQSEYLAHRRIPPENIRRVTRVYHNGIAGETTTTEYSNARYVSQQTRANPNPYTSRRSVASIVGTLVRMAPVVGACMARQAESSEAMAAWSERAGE

[4] = biological target: T4, PTx-S1-220 N150A (Bordetella pertussis strain Tohama I, UniProt P04977 36-255, N150A); assay: SPR, mAb 1B7 immobilised ~1000 RU
T4 sequence: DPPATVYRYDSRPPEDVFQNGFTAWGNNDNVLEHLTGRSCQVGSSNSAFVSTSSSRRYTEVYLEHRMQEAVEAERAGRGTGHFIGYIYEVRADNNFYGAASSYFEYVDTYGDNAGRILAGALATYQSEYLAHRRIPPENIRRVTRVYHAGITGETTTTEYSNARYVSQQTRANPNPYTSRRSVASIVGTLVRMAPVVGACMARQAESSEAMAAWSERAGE

[5] = biological target: pertussis toxin holotoxin (Bordetella pertussis), P04977; assay: competition ELISA (Friguet), 5 nM antibody, soluble PT; conditions: remark: other sources report otherwise
[6] = biological target: PTx-S1-220, truncated recombinant S1 subunit (residues 1-220) (Bordetella pertussis strain Tohama I), P04977; assay: SPR; value for truncated PTx-S1-220 differs from Table 1; conditions: remark: other sources report otherwise

B1: monoclonal antibody 1B7 (antibody)
chain: DIQMTQSPALMSASPGEKVTMTCSASSSVSFMYWYQQKPRSSPKPWIYLTSNLPSGVPARFSGSGSGTSYSLTISSMEAEDAATYYCQQWSSHPPTFGSGTKLEIKRGGGGSGGGGSGGGGSGGGGSEVQLQQSGSELVRPGASVKLSCKASGYKFTSYWMHWVKQRPGQGLEWIGNIFPGSGSTNYDEKFNSKATLTVDTSSNTAYMQLSSLTSEDSAVYYCTRWLSGAYFDYWGQGTTLTVSSASGA
notes: also called mAb 1B7; 1B7 mAb
koff [1]: 0.0011 s⁻¹
koff [2]: 0.0013 s⁻¹
koff [3]: 0.002 s⁻¹
koff [4]: 0.008 s⁻¹
Kd [5]: 1.1 nM
koff [6]: 0.0014 s⁻¹
